Results: patent US20040052816A1 (Pfizer, published 2004)

Target: the molecule itself
Test: self-association: retained by a 100,000 MW cutoff membrane in diafiltration

B1: recombinant 20 kDa surface associated protein from S. pneumoniae (Pneumo Protective Protein 1) (other)
chain: MNEVKKMVELKKEAVKDVTSLTKAAPVALAKTKEVLNQAVADLYVAHVALHQVHWYMHGRGFLVWHPKMDEYMEALDGQLDEISERLITLGGSPFSTLTEFLQNSEIEEEAGEYRNVEESLERVLVIYRYLSELFQKGLDVTDEEGDDVTNGIFAGAKTETDKTIWMLAAELGQAPGL
notes: also called r20 kDa; r20kDa
binding result: binds
